Experimental findings from publication PMC9440430, “An intrinsically disordered transcription activation domain increases the DNA binding affinity and reduces the specificity of NFκB p50/RelA” are described below.

The target of data set [1] is T1, p50/RelA-FL: p50 subunit (39-350);RelA-RHD (no TAD) (murine;murine, UniProt P25799;Q04207 39-350;19-321, |). Description: EMSA; SEC buffer 25 mM Tris pH 7.5, 150 mM NaCl, 0.5 mM EDTA, 1 mM DTT (FA buffer not stated explicitly; 5 nM DNA, RT incubation, read at 25 C); EMSA: SEC buffer 1:1. As to conditions: protein: recombinant;recombinant; tags: N-terminal His6;none; copies: 1;1. (In general: In EMSA bound probe runs differently from free probe, usually more slowly.)

For data set [2], the target named is T2, p50/RelA-FL: p50 subunit (39-350);RelA-FL (RHD + TAD) (murine;murine, UniProt P25799;Q04207 39-350;19-549, |). The data set is described as above. As to conditions: protein: recombinant;recombinant; tags: N-terminal His6;none; copies: 1;1.
Data set [3] has as its target T1, p50/RelA-FL: p50 subunit …. The data set can be described thus: fluorescence anisotropy; SEC buffer 25 mM Tris pH 7.5, 150 mM NaCl, 0.5 mM EDTA, 1 mM DTT (FA buffer not stated explicitly; 5 nM DNA, RT incubation, read at 25 C); EMSA: SEC buffer 1:1. As to conditions: protein: recombinant;recombinant, tags: N-terminal His6;none, copies: 1;1. A general note: In fluorescence polarisation assays a small probe gives low polarisation when free and higher when bound to something large.

The target in data set [4] is T2, p50/RelA-FL: p50 subunit …. The data set is described as above. The settings on record: protein: recombinant;recombinant, tags: N-terminal His6;none, copies: 1;1.
Setting [5] is: label: 5' fluorescein (FITC), hairpin.
The mark [6] stands for this setting: label: 5' fluorescein on forward or reverse strand.

Values joined by “and” are separate entries in the source; they are usually repeats but may differ in a detail not shown here. Equal entries are not always repeated.

T1 sequence (P25799 39-350, chain 1 of 2): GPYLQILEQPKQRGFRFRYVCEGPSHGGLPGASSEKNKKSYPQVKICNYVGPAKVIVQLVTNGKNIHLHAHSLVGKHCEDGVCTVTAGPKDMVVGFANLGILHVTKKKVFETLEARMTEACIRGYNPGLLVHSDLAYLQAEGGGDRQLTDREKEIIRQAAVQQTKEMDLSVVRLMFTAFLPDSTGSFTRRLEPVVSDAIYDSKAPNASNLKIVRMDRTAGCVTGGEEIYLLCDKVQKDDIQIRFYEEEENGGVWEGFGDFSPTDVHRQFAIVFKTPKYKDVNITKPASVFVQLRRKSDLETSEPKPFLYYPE
T1 sequence (Q04207 19-321, chain 2 of 2): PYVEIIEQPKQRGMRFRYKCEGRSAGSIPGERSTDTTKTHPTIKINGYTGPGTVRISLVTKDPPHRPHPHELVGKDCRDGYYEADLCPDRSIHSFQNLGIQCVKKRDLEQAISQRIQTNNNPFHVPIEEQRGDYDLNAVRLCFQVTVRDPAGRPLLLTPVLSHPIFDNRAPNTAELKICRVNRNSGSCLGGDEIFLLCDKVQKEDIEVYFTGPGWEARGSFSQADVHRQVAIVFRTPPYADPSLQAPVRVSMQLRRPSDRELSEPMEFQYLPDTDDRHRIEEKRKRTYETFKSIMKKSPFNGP
T2 sequence (P25799 39-350, chain 1 of 2): as the sequence (P25799 39-350, chain 1 of 2) above
T2 sequence (Q04207 19-549, chain 2 of 2): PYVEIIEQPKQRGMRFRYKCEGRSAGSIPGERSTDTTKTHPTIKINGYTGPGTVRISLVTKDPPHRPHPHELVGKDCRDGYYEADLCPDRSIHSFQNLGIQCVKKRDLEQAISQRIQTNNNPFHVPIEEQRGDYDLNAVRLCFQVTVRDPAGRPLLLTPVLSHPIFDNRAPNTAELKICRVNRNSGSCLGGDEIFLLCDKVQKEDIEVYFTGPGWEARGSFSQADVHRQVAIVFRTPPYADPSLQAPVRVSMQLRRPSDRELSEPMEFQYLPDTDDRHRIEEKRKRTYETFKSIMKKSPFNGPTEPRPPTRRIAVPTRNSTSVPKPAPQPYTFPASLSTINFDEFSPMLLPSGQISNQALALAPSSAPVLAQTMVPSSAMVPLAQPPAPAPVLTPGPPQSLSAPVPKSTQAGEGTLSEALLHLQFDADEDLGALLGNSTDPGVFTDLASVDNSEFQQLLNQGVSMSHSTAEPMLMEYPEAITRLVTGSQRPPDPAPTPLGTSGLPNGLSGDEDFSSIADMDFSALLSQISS

B1: HIV LTR tandem 33 bp (dsDNA)
DNA 1: AAGGGACTTTCCGCTGGGGACTTTCCAGGGAGG
DNA 2: CCTCCCTGGAAAGTCCCCAGCGGAAAGTCCCTT
For B1, the binding result in data set [1] and in data set [2] was “binds” throughout.

As to GGGAAAGTACTCCCCCAGTACTTTCCC (structured_DNA, 5' 5AmMC6 amino linker) [Urokinase (UK) hairpin], the Kd in data set [3] (setting [5]) came to 6.3 ± 1.5 nM; in data set [4] (setting [5]), 2.2 ± 0.6 nM.

Take GTAGACGTGCTCCCCCAGCACGTCTAC (structured_DNA, 5' 5AmMC6 amino linker) [Random hairpin]: the Kd was found to be 1500 ± 100 nM in data set [3] (setting [5]) and 130 ± 40 nM in data set [4] (setting [5]).

B2: HIV LTR tandem dsDNA (FA) (dsDNA)
DNA 1: CAAGGGACTTTCCGCTGGGGACTTTCCAGG
DNA 2: CCTGGAAAGTCCCCAGCGGAAAGTCCCTTG
Regarding B2, the dissociation constant (Kd) in data set [3] (setting [6]) came to 1.7 ± 0.4 nM; in data set [4] (setting [6]), 1.3 ± 0.4 nM.

B3: NFKBIA tandem 59 bp (dsDNA)
DNA 1: CTGACTGGCTTGGAAATTCCCCGAGCCTGACCCCGCCCCAGAGAAATCCCCAGCCAGCG
DNA 2: CGCTGGCTGGGGATTTCTCTGGGGCGGGGTCAGGCTCGGGGAATTTCCAAGCCAGTCAG
Regarding B3, the binding result in data set [1] and in data set [2] was “binds” each time.

B4: NFKBIA tandem dsDNA (FA) (dsDNA)
DNA 1: CTTGGAAATTCCCCGAGCCTGACCCCGCCCCAGAGAAATCCCCAG
DNA 2: CTGGGGATTTCTCTGGGGCGGGGTCAGGCTCGGGGAATTTCCAAG
In the case of B4, the dissociation constant (Kd) in data set [3] (setting [6]) was 1.7 nM and 10 nM; in data set [4] (setting [6]), 1.5 nM and 5.1 nM.

Usually Kd stands for the free concentration of one partner at which half of the binding sites on the other are occupied at equilibrium, for simple one-to-one binding.
